{"source": "paper PMC3325965", "about": "“Structural Basis of the Chromodomain of Cbx3 Bound to Methylated Peptides from Histone H1 and G9a” (PLoS ONE, 2012)"}
{"biological_target": "Histone H3K9me3 peptide (Homo sapiens) (UniProt P68431)", "assay": "not given", "conditions": "cited from earlier work", "units": {"Kd": "µM"}}
{"substance": "Cbx3 chromodomain (from UniProt Q13185)", "Kd": 15}
{"biological_target": "human Cbx3 chromodomain (residues 29–86) (human) (UniProt Q13185)", "sequence (Q13185 29-86)": "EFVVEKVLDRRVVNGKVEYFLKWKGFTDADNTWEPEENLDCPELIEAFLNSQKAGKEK", "assay": "ITC; peptide solution (1–2 mM) injected into the cell with Cbx3 chromodomain (40–100 mM [sic]) in 20 mM Tris–HCl, pH 7.5, 150 mM NaCl; one-site binding model", "conditions": "not given", "units": {"Kd": "µM"}}
{"substance": "G9a(179–190) peptide, K185 dimethylated", "Kd": 9}
{"substance": "G9a(179–190) peptide, K185 monomethylated", "Kd": 28}
{"substance": "G9a(179–190) peptide, K185 trimethylated", "Kd": 14}
{"substance": "histone H1.4(18–29) peptide, K26 dimethylated", "Kd": 52}
{"substance": "histone H1.4(18–29) peptide, K26 trimethylated", "Kd": 21}
